Assays:
Experiment in all cases: binding of antibody dilutions to peptides (FIG. 1)
[1] = molecular target: T1, Peptide Tau 386-408[phospho-serine396,404] (phosphoserine at positions 11 and 19 of SEQ ID NO: 1 (Ser396 and Ser404 of SEQ ID NO: 25))
T1 construct: For immunisation it was conjugated to KLH via a cysteine residue; also called P-Ser396, P-Ser404; diphosphorylated peptide

[2] = molecular target: T2, non-phosphorylated Tau peptide (Tau386-408) (none (serines 11 and 19 of SEQ ID NO: 1 not phosphorylated))
T2 construct: also called No-P; non-phosphorylated peptide

[3] = molecular target: T3, Tau 386-408 peptide phosphorylated only on serine 404 (phosphoserine at position 19 of SEQ ID NO: 1 (Ser404 of SEQ ID NO: 25); serine 11 not phosphorylated)
T3 construct: also called P-Ser404; P-Ser404 peptide

Measured: binding result

T3 sequence (peptide, as listed by the source): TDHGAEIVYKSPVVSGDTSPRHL

B1: Tau mAb 8B2D1 (antibody, V domains shown)
VH: EVQLQQSGPELVKPGASVKMSCKASGYTFTSYVIHWVKQKPGQGLEWIGYIYPYNDGTIYNEKFKGKATLTSDTSSSTVYMELISLTAEDSAVYWCVRERDNYGVYWGQGTTLTVSS
VL: DVLLTQTPLSLPVSLGDQASISCRSSQSIVHSNGNTYLEWYLQKPGQSPELLIYKVSNRFYGVPDRFSGSGSGTDFTLKISRVEAEDLGVYYCFQDSHIPYTFGGGTRLEIK
notes: Mouse (BALB/c) hybridoma monoclonal antibody; also called monoclonal antibody 8B2D1; anti-Tau 8B2D1 mAb
binds: [1] | [2] | [3]

From US20220041697A1 (NEW YORK UNIVERSITY, published 2022)
